The test has as its target T1, PQLC2-FLAG wild type (human, UniProt Q6ZP29 1-291).
T1 sequence: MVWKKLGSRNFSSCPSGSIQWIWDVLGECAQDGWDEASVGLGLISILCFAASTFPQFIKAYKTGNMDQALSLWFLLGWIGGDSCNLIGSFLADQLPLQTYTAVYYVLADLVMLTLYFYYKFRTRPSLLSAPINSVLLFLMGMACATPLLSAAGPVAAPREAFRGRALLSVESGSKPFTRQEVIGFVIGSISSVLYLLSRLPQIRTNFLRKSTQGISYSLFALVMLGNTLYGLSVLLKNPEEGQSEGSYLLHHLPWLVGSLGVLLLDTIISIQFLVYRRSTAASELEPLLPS
The experiment in a line: pull-down.

B1: GST-WDR41-PIP (GST fused to the 10 amino acid PIP sequence) (peptide)
chain: TGFFNMWGFG
For the molecule B1, the binding result is recorded as “binds”.
